The record followed here is patent publication US20160122426A1 (DONG A SOCIO, published 2016).

For orientation: Kd means a measure of binding affinity in units of concentration. Read a low Kd as tighter binding. The koff is the rate constant with which the complex falls apart. As usually defined, the kon is the rate constant with which the complex forms. In general, EC50 (read off the curve) refers to the concentration needed to bring the measured effect to its halfway point. Higher therefore signals lower potency in that assay.

Where a chain is given by its changes, count along the chain named.

Assay [1] concerns the target T1, human VEGF (human, UniProt P15692-4 27-191).
T1 construct: Bought recombinant protein; also called hVEGF; human VEGF-A
The assay is described as follows: ELISA and BIAcore. On the technique in general: In an ELISA, binding on a coated surface is turned into a signal by an enzyme label.

The target of assay [2] is T2, mouse VEGF (mouse, UniProt Q00731-2 27-190).
T2 construct: Bought recombinant protein; also called mVEGF-A; mouse VEGF-A
T2 sequence (looked up): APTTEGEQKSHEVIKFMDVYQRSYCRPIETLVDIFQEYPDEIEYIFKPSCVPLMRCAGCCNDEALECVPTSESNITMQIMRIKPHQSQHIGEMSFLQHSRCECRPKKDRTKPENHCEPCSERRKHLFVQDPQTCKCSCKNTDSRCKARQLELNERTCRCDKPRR
In words: ELISA and BIAcore.

The target in assay [3] is T1, human VEGF. The assay is described as follows: SPR (BIAcore X100), VEGF on CM5 chip, IgG injected, 1:1 Langmuir. The text has this: Meanwhile, to measure the affinity, human VEGF and mouse VEGF were coupled to carboxymethylated dextran biosensor chips (CM5, GE) according to the manufacturer's instructions.
The association and dissociation rates were expressed by the association and dissociation sensorgram, and calculated using a simple 1:1 Langmuir binding model (BIAcore X100 evaluation software, ver. 2.0).
Background: Surface plasmon resonance follows binding to a sensor surface in real time, without labels.
Target sequence in this assay (P15692 other isoform, or with tags, fused parts or gaps limits assumed): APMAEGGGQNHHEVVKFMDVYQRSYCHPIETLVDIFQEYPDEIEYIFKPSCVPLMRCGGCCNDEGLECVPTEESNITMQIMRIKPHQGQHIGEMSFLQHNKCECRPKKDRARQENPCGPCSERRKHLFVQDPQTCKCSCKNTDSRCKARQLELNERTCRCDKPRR

Assay [4] deals with T1, human VEGF. In words: ELISA, human VEGF coated, anti-human Fc-HRP, absorbance 450 nm [b]. How it is done: (§1) 1.5 ng of human VEGF diluted in 150 μL of buffer solution was placed in 96-well immune plate (Nunc, USA), and adsorbed at 4° C. overnight, followed by washing 3 times with a buffer solution containing 0.1% Tween 20. Then, they were reacted with a buffer solution including 1% bovine serum albumin (Sigma, USA) for 1 hr at room temperature, and washed 3 times. Then each well was treated with 150 μL of serially diluted antibody (1 ng/mL, 10 ng/mL, 30 ng/mL, 100 ng/mL, 1000 ng/mL and 3000 ng/mL) They were allowed to react for 1 hr at room temperature so that antigens may bind to antibodies, followed by washing 3 times with a buffer solution.
(§2) Each well was treated at 150 μL per well with anti-human immunoglobulin Fc-HRP antibody (AbSerotec, USA) diluted 1:20000 and allowed to react for 1 hr at room temperature. After the reaction was completed, washing was performed 3 times with a buffer solution, followed by addition of 150 μL of TMB (Sigma, USA) and color development for 10 min. The reaction was terminated with 1N sulfuric acid solution, and absorbance was measured at 450 nm using a spectrophotometer (Molecular Device, USA).

In assay [5] the target is T1, human VEGF. The assay is described as follows: ELISA, human VEGF coated, anti-human Fc-HRP, absorbance 450 nm [c]. How it is done:
as §1, §2

Assay [6] concerns the target T2, mouse VEGF. The assay is described as follows: ELISA, mouse VEGF coated, anti-human Fc-HRP, absorbance 450 nm [a].
Assay [7] addresses T3, human VEGF-B (human, UniProt P49765-2 22-188, limits assumed).
T3 construct: also called hVEGF-B
T3 sequence (looked up): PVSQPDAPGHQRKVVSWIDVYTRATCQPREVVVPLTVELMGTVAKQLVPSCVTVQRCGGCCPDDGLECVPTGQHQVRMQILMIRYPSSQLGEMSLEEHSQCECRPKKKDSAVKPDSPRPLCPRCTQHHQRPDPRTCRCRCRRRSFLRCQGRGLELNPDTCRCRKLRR
In words: ELISA, 0.2 ug/ml protein coated, anti-human IgG-Fab-HRP, absorbance 650 nm; antibody concentration not shown. How it is done: (§3) 0.2 μg/ml each of the respective proteins (hVEGF-A, mVEGF-A, hVEGF-B, hVEGF-C, hVEGF-D and PlGF) (R&D systems) were coated to the wells of ELISA plate, respectively. After blocking them with PBS containing 3% BSA and 0.05% Tween 20 for 30 min at 37° C., antibody clone proteins of increasing concentrations were incubated at 37° C. for 2 hr. Then, the wells were washed with PBS containing 3% BSA and 0.05% Tween 20 for 3 times, and anti-human IgG-Fab-HRP conjugate (Jackson Immunoresearch, USA) was added thereto and incubated for 1 hr at room temperature. Then they were washed with PBS containing 3% BSA and 0.05% Tween 20 for 3 times, and developed using TMB, and absorbance was measured at 650 nm.

In assay [8] the target is T4, human VEGF-C (human, UniProt P49767 103-227, limits assumed).
T4 construct: also called hVEGF-C
T4 sequence (looked up): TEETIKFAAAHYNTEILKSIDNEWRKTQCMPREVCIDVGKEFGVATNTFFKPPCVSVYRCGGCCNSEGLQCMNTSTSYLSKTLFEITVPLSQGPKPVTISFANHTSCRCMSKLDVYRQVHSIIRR
Described as above. Here is the method: as §3

Assay [9] deals with T5, human VEGF-D (human, UniProt O43915 93-201, limits assumed).
T5 construct: also called hVEGF-D
T5 sequence (looked up): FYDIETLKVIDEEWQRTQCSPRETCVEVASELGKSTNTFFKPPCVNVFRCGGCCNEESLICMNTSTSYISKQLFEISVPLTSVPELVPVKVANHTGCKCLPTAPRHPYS
Described as above. Here is the method: as §3

For assay [10], the target named is T6, human placental growth factor (human, UniProt P49763-2 21-149, limits assumed).
T6 construct: also called PlGF; PIGF
T6 sequence (looked up): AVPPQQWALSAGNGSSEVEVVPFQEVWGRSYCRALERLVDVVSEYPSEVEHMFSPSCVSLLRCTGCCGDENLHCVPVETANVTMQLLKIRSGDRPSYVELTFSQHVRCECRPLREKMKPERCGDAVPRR
The description is as above. How it is done:
as §3

Assay [11] concerns the target T1, human VEGF. The assay is described as follows: competition ELISA: human VEGF coated, 9 nM KDR ECD IgG-Fc (VEGFR2) added together with the antibody, bound receptor-Fc detected, absorbance 405 nm. Here is the method:
0.5 μg/ml of human VEGF was coated to 96-well ELISA plate and blocked with PBS solution containing 3% BSA and 0.05% Tween 20.

Assay [12] has as its target T1, human VEGF. In words: ELISA, human VEGF coated, absorbance 650 nm [g].

B1: HF2-5 (antibody, V domains shown)
VH: EVQLVESGGGLVQPGGSLRLSCAASGFMIRSHGMQWVRQAPGKGLEYVAGISSDGSWARHSAAVEGRFTISRDDSKNTAYLQMNSLRAEDTAVYYCARDFSTGYGADSIDAWGQGTLVTVSS
VL: DIQMTQSPSSLSASVGDRVTITCSGGSDSAYGYGWYQQKPGKAPKTLIYWDDKRPSGVPSRFSGSRSGTDFTLTISSLQPEDFATYYCGAWEYSGGVGIFGQGTKVEIK
notes: also called HF-5
As to B1, the “fold affinity over mother clone F” value in assay [1] and in assay [2] was not below 10 times throughout. For the same molecule, the Kd in assay [3] turned out to be 0.019 nM. This molecule showed an off-rate constant (koff) in assay [3] of 2.6e-05 s⁻¹. Besides, the kon in assay [3] amounted to 1.3e+06 M⁻¹ s⁻¹. The “EC50 (read off the curve)” value was approximately 0.04 µg/mL in assay [4], approximately 0.02 µg/mL in assay [5] and approximately 0.06 µg/mL in assay [6]. In addition, the binding result in [7], in assay [8], in assay [9] and in assay [10] was “no binding” in each case. In addition, the “IC50 (read off the curve)” value in assay [11] was approximately 5 nM.

B2: HF2-26 (antibody, V domains shown)
VH: B1 VH with G26R, M28N, I29M, A58I, H60V, S61Q
VL: B1 VL with S24T, G25A, G26P, S27A
For B2, the “fold affinity over mother clone F” value in assay [1] and in [2] was not below 10 times in each case. The “EC50 (read off the curve)” value in assay [12] was approximately 0.3 nM.

B3: HF2-9 (antibody, V domains shown)
VH: B1 VH with G26M, M28R, A58F, H60V, S61A
VL: B1 VL with D28M, S29E, A30P, Y31L
notes: also called HF-9
In the case of B3, the “fold affinity over mother clone F” value in assay [1] and in assay [2] was not below 10 times in each case. Besides, binding in assay [3] was put at a Kd of 0.018 nM. This molecule also had a koff in assay [3] of 3.2e-05 s⁻¹. In assay [3], the kon was 1.7e+06 M⁻¹ s⁻¹. The “EC50 (read off the curve)” value is approximately 0.04 µg/mL in assay [4] and approximately 0.05 µg/mL in [6]. Further, the binding result in [7], in assay [8], in assay [9] and in assay [10] was “no binding” throughout. Besides, the “IC50 (read off the curve)” value in assay [11] is approximately 5 nM.

B4: HF2-8 (antibody, V domains shown)
VH: B1 VH with M28H, A58L, R59K, H60L
VL: B1 VL with D28T, S29Y, A30S, Y31L
notes: also called HF-8
For B4, the “fold affinity over mother clone F” value in assay [1] was not below 10 times. In assay [2], the “fold affinity over mother clone F” value was not below 10 times. Besides, in [3], the Kd came out at 0.036 nM, the koff worked out at 5.7e-05 s⁻¹ and the kon stood at 1.5e+06 M⁻¹ s⁻¹. Further, the “EC50 (read off the curve)” value in [5] is approximately 0.02 µg/mL.

B5: HF2-11 (antibody, V domains shown)
VH: B1 VH with M28L, A58V, R59K, H60V, S61A
VL: B1 VL with D28S, S29E, A30P, Y31L
notes: also called HF-11; clone HF2-11
Turning to B5, the “fold affinity over mother clone F” value in assay [1] and in assay [2] was not below 10 times in each case. The molecule also had a Kd in assay [3] of 0.0047 nM. Also, the koff in assay [3] turned out to be 6.8e-06 s⁻¹. This molecule also showed a kon in [3] of 1.4e+06 M⁻¹ s⁻¹. Besides, the results for the concentration giving a half-maximal response (EC50 (read off the curve)) in assay [4] and in assay [6] were approximately 0.04 µg/mL and approximately 0.05 µg/mL, respectively. The binding result in [7], in [8], in assay [9] and in assay [10] was “no binding” each time. The “IC50 (read off the curve)” value in assay [11] was approximately 5 nM.

B6: HF2-1 (antibody, V domains shown)
VH: B1 VH with G26N, M28V, I29F, A58T, R59G, H60Y, S61G
VL: B1 VL
notes: also called HF-1
Take B6: the “fold affinity over mother clone F” value in [1] and in assay [2] was not below 10 times in each case. In assay [3], this molecule displayed a Kd of less than 0.001 nM. Further, the koff in [3] was less than 1e-06 s⁻¹. Also, the kon in [3] stood at 2.5e+06 M⁻¹ s⁻¹. In assay [6], the “EC50 (read off the curve)” value is approximately 0.08 µg/mL. Also, the binding result in assay [7], in assay [8], in assay [9] and in assay [10] was “no binding” throughout. For the same molecule, in assay [11], the “IC50 (read off the curve)” value is approximately 5 nM.

B7: HF2-4 (antibody, V domains shown)
VH: B1 VH with F27W, M28S, I29M, A58R
VL: B1 VL
notes: also called HF-4
In the case of B7, in assay [1], the “fold affinity over mother clone F” value is not below 10 times. Moreover, in [2], the “fold affinity over mother clone F” value is not below 10 times. Further, in assay [3], binding was put at a Kd of 0.0019 nM, the koff came to 3.1e-06 s⁻¹ and the kon came out at 1.6e+06 M⁻¹ s⁻¹. For the same molecule, the “EC50 (read off the curve)” value in assay [5] is approximately 0.02 µg/mL.

B8: HF2-19 (antibody, V domains shown)
VH: B1 VH with M28S, I29T, A58K, R59A, H60T, S61A
VL: B1 VL
As for B8, the “fold affinity over mother clone F” value in assay [1] and in assay [2] was not below 10 times in each case. Besides, the “EC50 (read off the curve)” value in [12] was approximately 0.1 nM.

B9: HF2-25 (antibody, V domains shown)
VH: B1 VH with G26Y, F27M, M28E, I29Y, A58F, H60M, S61N
VL: B1 VL with D28N, S29F, A30P, Y31M
For the molecule B9, the “fold affinity over mother clone F” value in assay [1] and in assay [2] was not below 10 times throughout. Further, the “EC50 (read off the curve)” value in assay [12] is approximately 0.2 nM.
